The text below walks through data of patent US20210332141A1, “INSULIN-LIKE GROWTH FACTOR-1 RECEPTOR (IGF-1R) BINDING PROTEINS AND METHODS OF USE” (AMGEN INC., priority 2017, published 2021).

The target in one test is HER-2 (Homo sapiens, UniProt P04626). The conditions noted are these: cellular; read-out: IC50 against Others: HER-2; cited from earlier work.
The target of test [1] is murine IGF-1R(ECD)-C3-mFc (murine) (UniProt Q60751). As to the kind of experiment: IGEN ligand blocking, competitor human Ru labeled IGF-1 on murine IGF-1R(ECD)-C3-mFc.
Test [2] has the same target. As to the kind of experiment: IGEN ligand blocking, competitor human Ru labeled IGF-2 on murine IGF-1R(ECD)-C3-mFc.
For test [3] the target is unchanged. As to the kind of experiment: Biacore, kinetic method, murine IGF-1R(ECD)-C3-mFc. In general terms: Surface plasmon resonance follows binding to a sensor surface in real time, without labels.
For test [4] the target is unchanged. Nature of the test: IGEN ligand blocking, maximal inhibition of human Ru labeled IGF-1 binding to murine IGF-1R(ECD)-C3-mFc.

murine IGF-1R(ECD)-C3-mFc (murine), sequence (Q60751 31-936): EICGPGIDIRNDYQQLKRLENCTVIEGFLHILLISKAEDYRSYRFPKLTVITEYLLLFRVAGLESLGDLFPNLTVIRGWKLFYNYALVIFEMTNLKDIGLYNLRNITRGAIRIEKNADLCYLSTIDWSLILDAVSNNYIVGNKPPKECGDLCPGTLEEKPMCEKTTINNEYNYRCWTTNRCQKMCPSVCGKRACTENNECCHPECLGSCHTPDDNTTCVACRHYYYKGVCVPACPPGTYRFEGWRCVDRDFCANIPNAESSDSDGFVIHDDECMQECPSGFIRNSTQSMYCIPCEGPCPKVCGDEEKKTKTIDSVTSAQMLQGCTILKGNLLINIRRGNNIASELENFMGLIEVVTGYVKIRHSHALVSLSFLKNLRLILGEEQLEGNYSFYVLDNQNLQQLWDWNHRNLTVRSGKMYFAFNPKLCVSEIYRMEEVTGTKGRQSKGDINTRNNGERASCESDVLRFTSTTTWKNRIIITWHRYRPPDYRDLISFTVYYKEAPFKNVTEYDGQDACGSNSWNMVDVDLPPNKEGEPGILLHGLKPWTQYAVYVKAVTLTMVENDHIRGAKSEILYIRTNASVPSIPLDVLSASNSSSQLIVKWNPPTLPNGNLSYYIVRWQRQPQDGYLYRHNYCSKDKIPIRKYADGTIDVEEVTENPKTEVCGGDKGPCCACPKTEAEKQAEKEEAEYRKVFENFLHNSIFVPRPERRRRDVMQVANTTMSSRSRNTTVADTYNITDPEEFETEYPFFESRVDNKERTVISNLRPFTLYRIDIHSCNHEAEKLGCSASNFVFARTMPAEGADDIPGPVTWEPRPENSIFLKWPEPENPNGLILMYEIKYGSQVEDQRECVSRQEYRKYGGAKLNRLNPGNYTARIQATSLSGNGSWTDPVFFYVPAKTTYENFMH
HER-2, sequence (P04626 23-1255, species assumed): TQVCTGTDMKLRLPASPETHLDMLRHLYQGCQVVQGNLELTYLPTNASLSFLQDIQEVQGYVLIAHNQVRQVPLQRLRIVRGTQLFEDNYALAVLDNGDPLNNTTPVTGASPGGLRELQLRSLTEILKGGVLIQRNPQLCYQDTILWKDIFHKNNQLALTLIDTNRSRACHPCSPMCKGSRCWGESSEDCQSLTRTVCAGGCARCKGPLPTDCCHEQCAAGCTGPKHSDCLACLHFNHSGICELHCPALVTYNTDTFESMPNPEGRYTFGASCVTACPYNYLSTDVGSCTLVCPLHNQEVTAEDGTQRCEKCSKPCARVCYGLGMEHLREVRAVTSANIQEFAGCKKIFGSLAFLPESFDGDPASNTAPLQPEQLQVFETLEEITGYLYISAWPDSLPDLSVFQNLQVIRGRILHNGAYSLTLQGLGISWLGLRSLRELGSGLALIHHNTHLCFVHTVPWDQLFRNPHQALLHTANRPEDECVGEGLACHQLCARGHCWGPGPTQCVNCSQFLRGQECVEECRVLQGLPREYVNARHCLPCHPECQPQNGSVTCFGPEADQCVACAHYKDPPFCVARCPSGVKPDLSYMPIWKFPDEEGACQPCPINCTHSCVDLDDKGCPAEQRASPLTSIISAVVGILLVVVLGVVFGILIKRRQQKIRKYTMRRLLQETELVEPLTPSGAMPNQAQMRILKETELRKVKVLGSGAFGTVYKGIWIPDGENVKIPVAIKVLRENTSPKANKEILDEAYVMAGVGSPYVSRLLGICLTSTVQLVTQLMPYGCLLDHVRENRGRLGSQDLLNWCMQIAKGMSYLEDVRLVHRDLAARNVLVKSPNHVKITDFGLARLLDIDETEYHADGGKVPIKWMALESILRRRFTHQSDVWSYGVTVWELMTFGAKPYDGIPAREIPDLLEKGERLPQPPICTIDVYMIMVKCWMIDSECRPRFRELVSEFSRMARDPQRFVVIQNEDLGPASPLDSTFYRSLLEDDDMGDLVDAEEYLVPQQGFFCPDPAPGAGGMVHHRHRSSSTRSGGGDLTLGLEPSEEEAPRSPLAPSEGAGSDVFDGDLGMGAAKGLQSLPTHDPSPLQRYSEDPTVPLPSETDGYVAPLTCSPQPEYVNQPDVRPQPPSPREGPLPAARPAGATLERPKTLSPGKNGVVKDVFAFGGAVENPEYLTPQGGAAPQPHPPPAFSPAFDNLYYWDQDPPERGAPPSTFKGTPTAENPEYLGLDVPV

As usually defined, the IC50 is the concentration at which inhibition is half-maximal. With `C[C@H](Cc1ccc(O)c(O)c1)[C@@H](C)Cc1ccc(O)c(O)c1` [INSM-18, nondihydroguaiaretic acid], the IC50 at HER-2 was 15 µM.

A word on the Ki: it is the dissociation constant of the complex between target and ligand, obtained from inhibition or displacement. Lower therefore signals a stronger hold on the target. By Kd is commonly meant the constant that tells how readily two partners part at equilibrium. In the case of αIR3 (antibody), the inhibitory constant (Ki) in test [1] and in test [2] was more than 1 µM throughout. In test [3], this molecule returned a Kd of 0.00033 µM. In test [4], this molecule showed an IGF-1 Max (%) of 31%.
